Assay results published in patent publication US20190270793A1 (Janssen / Centocor, published 2019).

Tests used:
[1] = molecular target: T1, PHF-tau (paired helical filament-tau), partially purified from postmortem cortex of an Alzheimer patient (human, UniProt P10636-8 2-441, limits assumed, hyperphosphorylated (sites not given)); experiment: SPR (ProteOn XPR36 or Biacore T200)
T1 construct: This is an aggregated, hyperphosphorylated brain-derived preparation, not a single defined chain

[2] = molecular target: T2, soluble tau (control tau; recombinant 2N4R tau, SEQ ID NO:31) (human, UniProt P10636 2-758); experiment: direct ELISA on 2N4R tau coated at 1 ng/mL, O.D. 450 nm
T2 construct: also called Sol-tau; recombinant WT tau
Experimental: (§1) Binding to recombinant WT (2N4R; SEQ ID NO:31) tau was analyzed by ELISA where full-length Tau protein (1 ng/mL or 10 ng/mL) was directly coated to the plate and incubated with different concentrations of either recombinantly- or hybridoma produced PT82 antibody (FIG. 2). After incubation with antibodies, plates were again washed and 50 μL per well of HRPO labelled anti-mouse antibody (GE Healthcare) (diluted 1:10000 in blocking buffer) was added. After another washing step detection was performed with “One step” TMB (Thermo Scientific) according to the manufacturers' instructions. Plates were analysed in EnVision® 2102 Multilabel Reader (Perkin Elmer, Waltham, Mass., USA). Binding curves were generated using GraphPad Prism7.0 software. […] No substantial difference has been observed between binding profiles of recombinant and hybridoma produced antibodies.

[3] = molecular target: T2, soluble tau (control tau; recombinant …); experiment: direct ELISA on 2N4R tau coated at 10 ng/mL, O.D. 450 nm
Experimental: as §1

[4] = molecular target: T3, 103 122 …; experiment: pepscan-based ELISA on the array of linear 20-mer Tau441 peptides
T3 construct: Linear 20-mer made on the solid support of the pepscan array
T3 peptide: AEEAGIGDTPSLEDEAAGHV
Experimental: (§2) The binding of antibodies (recombinantly expressed as IgG2a) to each of the synthesized peptides was tested in a pepscan-based ELISA. The peptide arrays were incubated with primary antibody solution (overnight at 4° C.). After washing, the peptide arrays were incubated with a 1/1000 dilution of an appropriate antibody peroxidase conjugate (SBA) for one hour at 25° C. After washing, the peroxidase substrate 2,2′-azino-di-3-ethylbenzthiazoline sulfonate (ABTS) and 20 μl/ml of 3 percent H2O2 were added. After one hour, the color development was measured. The color development was quantified with a charge coupled device (CCD)—camera and an image processing system.

[5] = molecular target: T4, 121 140 …; experiment: as above
T4 construct: Linear 20-mer made on the solid support of the pepscan array; also called Tau441 peptide 121-140
T4 peptide: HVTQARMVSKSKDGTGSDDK
Experimental: as §2

[6] = molecular target: T5, 105 124 …; experiment: as above
T5 construct: Linear 20-mer made on the solid support of the pepscan array; also called Tau441 peptide 105-124
T5 peptide: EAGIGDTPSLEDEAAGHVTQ
Experimental: as §2

[7] = molecular target: T6, 107 126 …; experiment: as above
T6 construct: Linear 20-mer made on the solid support of the pepscan array; also called Tau441 peptide 107-126
T6 peptide: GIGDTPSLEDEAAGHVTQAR
Experimental: as §2

[8] = molecular target: T7, 109 128 …; experiment: as above
T7 construct: Linear 20-mer made on the solid support of the pepscan array; also called Tau441 peptide 109-128
T7 peptide: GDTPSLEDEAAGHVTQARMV
Experimental: as §2

[9] = molecular target: T8, 111 130 …; experiment: as above
T8 construct: Linear 20-mer made on the solid support of the pepscan array; also called Tau441 peptide 111-130
T8 peptide: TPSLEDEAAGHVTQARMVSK
Experimental: as §2

[10] = molecular target: T9, 113 132 …; experiment: as above
T9 construct: Linear 20-mer made on the solid support of the pepscan array; also called Tau441 peptide 113-132
T9 peptide: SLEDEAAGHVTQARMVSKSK
Experimental: as §2

[11] = molecular target: T10, 115 134 …; experiment: as above
T10 construct: Linear 20-mer made on the solid support of the pepscan array; also called Tau441 peptide 115-134
T10 peptide: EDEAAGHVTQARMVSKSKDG
Experimental: as §2

[12] = molecular target: T11, 117 136 …; experiment: as above
T11 construct: Linear 20-mer made on the solid support of the pepscan array; also called Tau441 peptide 117-136
T11 peptide: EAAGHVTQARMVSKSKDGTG
Experimental: as §2

[13] = molecular target: T12, 119 138 …; experiment: as above
T12 construct: Linear 20-mer made on the solid support of the pepscan array
T12 peptide: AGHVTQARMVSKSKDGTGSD
Experimental: as §2

[14] = molecular target: T2, soluble tau (control tau; recombinant …); experiment: SPR (ProteOn XPR36 or Biacore T200); central value of the cell
[15] = molecular target: T2, soluble tau (control tau; recombinant …); experiment: ELISA on coated soluble tau, anti-human Fc:HRP, 5-fold dilutions from 5 ug/ml
Experimental: Colonies from this electroporation were picked for the ELISA screen and assessment of Fab expression. Briefly, Maxisorp 96 well plates were coated with soluble Tau protein. Fab colonies were grown in 2×YT media and Fab expression was induced with IPTG. ELISA plates were washed and Fab secreted into the E. coli media was added to each ELISA plate. Plates were washed and Anti-Fab′2:HRP (Jackson ImmunoResearch) was added to the ELISA plates. Plates were washed and chemiluminescent detection reagent was added and plates were read on a Perkin Elmer EnVision plate reader for luminescence.
Positive clones were sequenced in both VH and VL. Unique sequences were cloned into IgG gene expression constructs for expression and purification as full length IgG1 molecules. IgG constructs were transfected into CHO-Expi cells and IgG protein was purified using MabSelectSure resin. Antibodies were then tested in an ELISA for binding to soluble Tau, using anti-human Fc:HRP (Jackson ImmunoResearch), to detect IgG binding.
The ELISA was done as described for Fabs except that antibodies were tested at five 5-fold dilutions starting at 5 μg/mL in PGS and anti-human Fc:HRP (Jackson ImmunoResearch) was used to detect IgG binding.

T2 sequence (P10636 other isoform, or with tags, fused parts or gaps limits assumed): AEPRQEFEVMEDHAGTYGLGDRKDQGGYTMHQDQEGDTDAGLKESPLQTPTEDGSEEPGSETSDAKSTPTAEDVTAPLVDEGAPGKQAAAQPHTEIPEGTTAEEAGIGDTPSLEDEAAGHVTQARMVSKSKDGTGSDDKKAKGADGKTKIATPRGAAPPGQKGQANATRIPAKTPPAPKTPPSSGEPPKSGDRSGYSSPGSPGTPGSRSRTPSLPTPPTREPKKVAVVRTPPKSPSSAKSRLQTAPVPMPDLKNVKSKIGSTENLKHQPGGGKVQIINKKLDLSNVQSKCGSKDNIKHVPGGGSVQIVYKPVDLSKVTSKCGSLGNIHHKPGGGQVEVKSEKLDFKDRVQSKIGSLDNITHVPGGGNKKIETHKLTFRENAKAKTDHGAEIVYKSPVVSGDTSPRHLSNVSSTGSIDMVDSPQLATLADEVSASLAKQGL
T1 sequence (P10636 other isoform, or with tags, fused parts or gaps limits assumed): as above

B1: PT82 mAb, recombinantly expressed (mouse IgG2a/kappa) (antibody, V domains shown)
VH: EVKLEESGGGLVQPGGSMKLSCVASGFTFSNYWMNWIRQSPEKGLEWVAQIRLQSDNYATRYAESVKGRFTISRDESKTSVYLQMNNLRTEDTGIYYCTGGTTYWGQGTLVTVSA
VL: DIVMTQSQKFMSTSVGDRVSITCKASQNVGTAVAWYQQKPGQSPKLLIYSASIRYTGVPDRFTGSGSGTDFTLTINYMQSEDLADYFCQQFSSYPYTFGGGTKLEIK
notes: also called recombinant PT82; murine PT82
Kd [1]: 2.85 nM
EC50 (read off the curve) [2]: ~0.05 µg/mL
EC50 (read off the curve) [3]: ~0.01 µg/mL
pepscan ELISA signal (PT82) [4]: 68
pepscan ELISA signal (PT82) [5]: 68
pepscan ELISA signal (PT82) [6]: 2900
pepscan ELISA signal (PT82) [7]: 2920
pepscan ELISA signal (PT82) [8]: 2920
pepscan ELISA signal (PT82) [9]: 2930
pepscan ELISA signal (PT82) [10]: 2930
pepscan ELISA signal (PT82) [11]: 2920
pepscan ELISA signal (PT82) [12]: 2920
pepscan ELISA signal (PT82) [13]: 2910

B2: PT82 Fab (chimeric: mouse variable domains on human IgG1/kappa constant domains, His tag at the C-terminus of the heavy chain) (Fab, V domains shown)
VH: EVKLEESGGGLVQPGGSMKLSCVASGFTFSNYWMNWIRQSPEKGLEWVAQIRLQSDNYATRYAESVKGRFTISRDESKTSVYLQMNNLRTEDTGIYYCTGGTTYWGQGTLVTVSA
VL: DIVMTQSQKFMSTSVGDRVSITCKASQNVGTAVAWYQQKPGQSPKLLIYSASIRYTGVPDRFTGSGSGTDFTLTINYMQSEDLADYFCQQFSSYPYTFGGGTKLEIK
notes: The Fab has mouse variable domains fused to human IgG1/kappa constant domains, with a His tag at the C-terminus of the heavy chain; also called Fab fragment of PT82
Kd [1]: 5.01 nM
Kd [14]: 1.84 nM

B3: PT82 from hybridoma supernatant (hybridoma-produced mouse monoclonal antibody) (antibody, V domains shown)
VH: EVKLEESGGGLVQPGGSMKLSCVASGFTFSNYWMNWIRQSPEKGLEWVAQIRLQSDNYATRYAESVKGRFTISRDESKTSVYLQMNNLRTEDTGIYYCTGGTTYWGQGTLVTVSA
VL: DIVMTQSQKFMSTSVGDRVSITCKASQNVGTAVAWYQQKPGQSPKLLIYSASIRYTGVPDRFTGSGSGTDFTLTINYMQSEDLADYFCQQFSSYPYTFGGGTKLEIK
notes: This is the native hybridoma antibody; also called hybridoma produced PT82
EC50 (read off the curve) [2]: ~0.02 µg/mL
EC50 (read off the curve) [3]: ~0.004 µg/mL

B4: PT1B779 (humanized PT82, full length IgG1) (antibody, V domains shown)
VH: EVQLVESGGGLVQPGGSLRLSCAASGFTFSNYWMNWIRQAPGKGLEWVGQIRLQDDNYATRYAASVKGRFTISRDDSKNSVYLQMNSLKTEDTAVYYCTGGTTYWGQGTLVTVSS
VL: DIQMTQSPSFLSASVGDRVTITCKASQNVGTKVAWYQQKPGKAPKLLIYSASIRYTGVPSRFSGSGSGTEFTLTISSMQPEDFATYYCQQFSSYPYTFGQGTKLEIK
binding result [15]: binds

B5: PT1B780 (humanized PT82, full length IgG1) (antibody, V domains shown)
VH: EVQLVESGGGLVQPGGSLRLSCAASGFTFSNYWMNWIRQAPGKGLEWVGQIRLQSDNYATRYAASVKGRFTISRDDSKNSLYLQMNSLKTEDTAVYYCTGGTTYWGQGTLVTVSS
VL: DIQMTQSPSFLSASVGDRVTITCKASQNVGTKVAWYQQKPGKAPKLLIYSASIRYTGVPSRFSGSGSGTEFTLTISSLQPEDFATYYCQQFSSYPYTFGQGTKLEIK
binding result [15]: binds

B6: PT1B781 (humanized PT82, full length IgG1) (antibody, V domains shown)
VH: EVQLVESGGGLVQPGGSLRLSCAASGFTFSNYWMNWIRQAPGKGLEWVGQIRLQRDNYATRYAASVKGRFTISRDDSKNSVYLQMNSLKTEDTAVYYCTGGTTYWGQGTLVTVSS
VL: DIQMTQSPSFLSASVGDRVTITCKASQNVGTKVAWYQQKPGKAPKLLIYSASIRYTGVPSRFSGSGSGTEFTLTISSMQPEDFATYYCQQFSSYPYTFGQGTKLEIK
binding result [15]: binds

B7: PT1B778 (humanized PT82, full length IgG1) (antibody, V domains shown)
VH: EVQLVESGGGLVQPGGSLRLSCAASGFTFSNYWMNWIRQAPGKGLEWVGQIRLQSDNYVTRYAASVKGRFTISRDDSKNSVYLQMNSLKTEDTAVYYCTGGTTYWGQGTLVTVSS
VL: DIQMTQSPSFLSASVGDRVTITCKASQNVGTRVAWYQQKPGKAPKLLIYSASIRYTGVPSRFSGSGSGTEFTLTISSMQPEDFATYYCQQFSSYPYTFGQGTKLEIK
binding result [15]: binds

B8: PT1B782 (humanized PT82, full length IgG1) (antibody, V domains shown)
VH: EVQLVESGGGLVQPGGSLRLSCAASGFTFSNYWMNWIRQAPGKGLEWVGQIRLQYDNYATRYAASVKGRFTISRDDSKNSVYLQMNSLKTEDTAVYYCTGGTTYWGQGTLVTVSS
VL: DIQLTQSPSFLSASVGDRVTITCKASQNVGTKVAWYQQKPGKAPKLLIYSASIRYTGVPSRFSGSGSGTEFTLTISSMQPEDFATYYCQQFSSYPYTFGQGTKLEIK
binding result [15]: binds
